Reference: the nanobody polyreactivity screen of Harvey et al. (2022)

Experiment: yeast display, Sf9 membrane polyspecificity reagent, FACS + sequencing; frameworks hold sequencing errors
Method in brief: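 Sorting gates, low and high (top ~1%), were placed on anti-HA fluorescence to track expression and on streptavidin fluorescence to track reagent binding. A clone's polyreactivity label is taken from the gate it came out of. The reagent was 10% biotinylated, detergent-solubilized Sf9 membrane, applied for 1 hour at 4 °C to galactose-induced yeast display cells.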

## QVQLVESGGGLVQAGGSLRLSCAASGSTFYYNVMGWYRQAPGKERELVAAITLSGGSTYADSVKGRFTISRDNAKNTVYLQMNSLKPEDTAVYYCAKKGRYGRWGYKFDYWGQGTQVTVSS
  polyreactivity (PSR sort gate): low polyreactivity

## QFQLVDSGRGLVQAGGSLRLSCAASGRTFPHYAMGWYRQAPGKERELVAAISSRGGSTYYADSVKGRFTISRDNVKNTVYLQMNSLKPEDTAVYYCAATVGLYRSREYGYWGQGTQVTVSS
  polyreactivity (PSR sort gate): low polyreactivity

## QVQLVESGGGLVQAGGSLRLSCAASGFTFQRYTMGWYRQAPGKERELVAAITRSGGRTYYADSVKGRFTISRDNAKNTVYLQMNSLKPEDTAVYYCAVDYRTRGDYWGQGTQVTVSS
  polyreactivity (PSR sort gate): high polyreactivity

## QVQLVESVGGLGQAGGSLRLSCAASGSTFAGYTMGWYRQAPGKERELVAANTSRGGRTYYADSVKGRFTISRDNAKNTVYIQMNSLKPEDTAVYYCAAVSRYYAELMYYWGQGTQVTVSS
  polyreactivity (PSR sort gate): high polyreactivity

## QVQHVESGGGLVQAGGSLRLSCAASGFIFNRNAMGWYRQAPGKERELVAAISTRGSTYYADSVKGRFTISRDNAKNTDYLQMNSLKPEDTAVYYCAKAVYVDQGTYYYCGQGTQVTVSS
  polyreactivity (PSR sort gate): low polyreactivity

## QVQLVESGGGLVQAGGSLRLSCAASGLTISTNAMGWYRQAPGKERELVAAISRAGSTYYADSVKGRFTISRDNAKNTVYLQMNSLKPEDTAVYYCAAKYRYSTYHRGSFNFWGQGTQVTVSS
  polyreactivity (PSR sort gate): high polyreactivity

## QVQLQESGGGLVQAGGSMRLSCAASGSISELRPMGWYRKAPGKERELVAGISTGGSTNYADSVKGRFTISRDNAKNTVYLQMNSQKPEDTAVYYCAAASYGEGTYDYWGQGTQVTVRS
  polyreactivity (PSR sort gate): high polyreactivity

## QVQLVESWGGLVQAGGSLRLSCAASGFTFYGYAMGWYRQAPGKERELVAAISRRSSSTYYADSVKGRFTISRDNAKNTVYLQMNSLKPEDTAVYYCNTVFQLSGYAAGVDYWGQGTQVTVSS
  polyreactivity (PSR sort gate): high polyreactivity

## QVQLVESGGGIVQAGGSLSLRCAASGRIFITNAMGWNRQAPGKERELVAAIRRRGGNTYYADSVKGRFTISRDNGKNTVYLLMNSLKPEDSAVYYCAVYPRPYNYNYWGQGTQVTVSS
  polyreactivity (PSR sort gate): high polyreactivity

## QVQLVESGGGLVQAGGSLRLSCAASGRIFTKNTMGWYRQAPGKERELVAAIRSRAGSTYYADSVKGRFTISRDNAKNTVYLQMNSLKPEDTAVYYCAVPWFRSVDFDYWGQGTQVTVSS
  polyreactivity (PSR sort gate): low polyreactivity

## QVQLVESGGGLVQAGGSLRLSCAASGFTFVKYAMGWYRQAPGKERELVAVISRRGGSTYYADSVKGRFTISRDNAKNTVYLQMNSLKPEDTAVYYFAAKVALPRTQEWEYGYWGQGTQVTVSS
  polyreactivity (PSR sort gate): high polyreactivity

## QVQLVESGGGLVQAGGSLRLSCAASGRTFALYTMGWYRQAPGKVRELVAAINWSGTSTYYADSVKGRFTISRDNAKNTVYLQMNSLKPEDTAVYYCNRDPRKYGKLDYWGQGTQVTVSS
  polyreactivity (PSR sort gate): low polyreactivity

## QVQLVESGGGLVQAGGSLRLSCAASGFTIYSYAKAWYRQAPGKERELVAAITRGSSTNYADSVKGRFTISRDNAKNTVYLQMNSLKPEDTAVYYCNRGGWRQYDSWGQGTQVTVSS
  polyreactivity (PSR sort gate): high polyreactivity

## QVQIVESGGGLVQAGGSLRLSCAASGTTFDKYAMGWYRQAPGKERELVAAITTNGGNTYADSVKGRFTISRDNAKNTVYLQMNSLKPEDTAVYYCAADGPGGKGLYYYWGQGTQVTVSS
  polyreactivity (PSR sort gate): high polyreactivity

## QVQLVESGGGLVQAGGSLRLSCAASGRTFAWKAMGWYRQAPGKERELVAAMSSRGTSTYYADSVKGRFTISRDNAKKTVYLQMNSLKPEDTAVYYCAKYTNPASGEYGYWGQGTQVTVSS
  polyreactivity (PSR sort gate): high polyreactivity

## QVQLLESGGGLVQAGGSLRLICAASGSTFVVYAMGWYRQAPGKERELVAAIRSGGGTYYADSVKGRFTISRDNAKNTVYLQMNSQKPEDTAVYYCNADSDPGPAYVYRDLYDYWGQGTQVTLSS
  polyreactivity (PSR sort gate): low polyreactivity

## QVQLVESGGGLVQAGGSLRLSCAASGLTFVANAMGWYSQAPGKERELVARISSSGGSTYYADSVKGRFTISRDNAKNTVYLQMNSLKPEDTAVYYCASSQSGGYDYWGQGTQVTVSS
  polyreactivity (PSR sort gate): high polyreactivity

## QVQLVESGGGLVQAGGSLRLSCAASGRTFWSNAMGWYRQAPGKERELVADITFSGGRTYYADSVKGRFTISRDNAKNTVYLQMNSLKPEDTAVYYCAASATPSGVGMDYWGQGTQVTVSS
  polyreactivity (PSR sort gate): low polyreactivity

## QDQLVESGGGLDQAGGSLRLSCAASGFTFIRYAMGWYRQAPGKERELVATITRSGGSTYYADSVKGRFTISRDHAKNTVYLQMNSLKPEDTAVYYCAKRGTLGSYYYWGQGTQVTVSS
  polyreactivity (PSR sort gate): high polyreactivity

## QVQLVETGGGLVQAGGSLRLSCAASGRIFYYYAMGWYRQAPGKERELVAGIDSGDSTNYADSVKGRFTISRDNAKNTVYLQMNSLKPEDTAVYYCAALHYGVYFSYYPYYYWGQGTQVTVSS
  polyreactivity (PSR sort gate): low polyreactivity

## QVQLVESGVGLVQSGGSLRLSCAASGFIFRWYAKGWYRQAPGKERELVAAISGGGSSTYYADSVKGRFTISRDNEKNTVYLQMNSLKPEDNAVYYCAAYNTYLGYPYYYWGQGTQVTVSS
  polyreactivity (PSR sort gate): high polyreactivity

## QVQHVESLGGLVQAGGSLRLSCAASGIIFGYYAMGWYRQAPGKERELVAAISRRGGSTYYADSVKGRFTISRDNAKNTVYLQMNSLKPEDTAVYYCAAVELRLSTPDMESWGQGTQVTVSS
  polyreactivity (PSR sort gate): high polyreactivity

## QVQLVESGGGLVQAGGSLRLSCAASGSTFDYNAMGWYRQAPGKERELVAAISWRGGGTYYADSVKGRFTISRDNAKNTVYLQMNSLKPEDTAVYYCNTVSRNGFYRSRHDYWGQGTQVTVSS
  polyreactivity (PSR sort gate): low polyreactivity

## QVQLVESGGGLVQAGGSLRLSCAASGRIFSRYAMGWYRQAPGKERELVAAITRGGSTYADSVKGRFTISRDNAKNTVYLQMNSLKPEDTAVYYCATPIYSSYYRYSSGYGYDYWGQGTQVTVSS
  polyreactivity (PSR sort gate): high polyreactivity

## QVQLVESGGGLVQAGGSLRLSCAASGSTFPDYAMGWYRQAPGKERELVAAISGDSDDTYYADSVKGRFTISRDNAKNTVYLQMNSLKPEDTAVYYCAARRGRAVYSVAYDYWGQATQVTVSS
  polyreactivity (PSR sort gate): high polyreactivity

## HVQLVESGGGLVQAGGSLRLSCAASGRTFGAYTMGWYRQAPGKERELVAAINWSGGDTYYAYSVKGRFTISRDNAKNTVYLQMNSQKPEDTAVYYCNAEPRYGTYDYWGQGTQVTVSS
  polyreactivity (PSR sort gate): low polyreactivity

## QVQLVESGGGLVQAGGSLRLSCAASGSTFSANAMGWYRQAPGKERELVAAITYRGGNTYYADSVKGRFTISRDNAKNTVYLQMNSLKPEDTAVYYCNRDLRVRYRRLKYGYWGQGTQVTVSS
  polyreactivity (PSR sort gate): low polyreactivity

## QVQLEESGGGLVQAGGSLRLSCAASGSTFEVYAMGWYRQAPGKERELVAVINVSDGSTYYADSVKGRFTISRDYAKNTVYLQMNSMKPEDTAVYYCADYLYNRPYQLTGYYDGYGYWGQGTQVTVSS
  polyreactivity (PSR sort gate): low polyreactivity

## QVQLVESGAGLVQAGGSLRLSCAASGITFRGYAMGWYRQAPGKERELVAAISSRGGSTYYADSVMGRFTISRDNAKNTVYLQMNSLKPEDTAVYYCNAVSGLYFTYTYDYWGQGTQVTVSS
  polyreactivity (PSR sort gate): high polyreactivity

## QVQLVESGGGVVQAGGSLRLSCAASGRISRGNAMGWYRPAPGKEREFVAAISWSGDGTYYADSVKGRFTISRDNAKYTVYLQMNSLNPEDTAVYYCNTAVKVERDYWGQGTQVTVSS
  polyreactivity (PSR sort gate): low polyreactivity

## QVQLVESGGGLVQAGGSLRLSCAASGYTFDAYAMGWYRQAPGKERELVAAITTNGGSTYYADSVKGRFTISRDNAKNTVFLQMNSLIPEDTAVFYCKAEYWYEGRYPYDYWGQGTQVTVSS
  polyreactivity (PSR sort gate): low polyreactivity

## QVQHVESGAGLVQAGGSLRLSCAASGLILVYYAMGWYRQAPGKEREFVAAITPGGSTKYADSVKGRFTISRDNAKNTVYLQMNSLKPEDTAVYYCNALSGPYWYSVYQYHQDDYWGQGTQVTVSS
  polyreactivity (PSR sort gate): low polyreactivity

## QVQLVESGGGLVQAGGSLRLSCAASGSTFPYNAMGSYRQAPGKERELVAAISSSGGRTYYADSVKGRFTISRDTAKNTVYLQMNSLKPEDTAVYYCNAAYYYTYGYWGQGTQVTVSS
  polyreactivity (PSR sort gate): high polyreactivity

## QVQLVESGGGLVQEGGRLRLSCAASGITFRYYAMGWYRQAPGKERELVAAISWGGGSTYYADSVKGRFTISRDNATNTVYLQMNSLKPEDTAVYYCNARGSVRPYGPRATLDYWGQGTQVTVSS
  polyreactivity (PSR sort gate): high polyreactivity

## QVQLVESGGRLVQAGGRLRLSGAASGSNFTDNAMGWYRQAPGKERELVAGISERGSSTYYADSVKGRFTISRDNAKNTVYLQMNSLKRVDTAVYYCSAEDVGRYWSSTHNWARGDYWGQGTQVTVSS
  polyreactivity (PSR sort gate): low polyreactivity

## QVQLVESGGGLVQAGGSLRLSCAASGRTSYTYVMGWYRQAPGTERELVAAIRLSGGNTYYADSVKGRFTISRDNAKNTVYLQMNSLKPEDTAVYYCAAHYWRHRKAYGYWGQGTQVTVSS
  polyreactivity (PSR sort gate): high polyreactivity

## QVQLVESGGGLFKAGGSLRLSCAASGLIFWGYTMAWSRQAPGKERELVAAISRRGGRTYYAASVMGRFTISRDNAKNTVYLQMNTLKPEDTAVDYCKADITSSGPKSDYWGQGTQVTVSS
  polyreactivity (PSR sort gate): high polyreactivity

## QVQLVESGGGLVQAGGSLRLSCAASGSTFFDNAMGWYRQAPGKERELVAAITWNGGRTYYADSVKGRFTISRDNAKNTVYLQMNSLKPEDTAVYYCAKVPLYGRVIYRQPDVYSWGQGTQVTVSS
  polyreactivity (PSR sort gate): high polyreactivity

## QVQLVESGGGLVQAGGSLRLSCAASGSTFYPYAMGWYRQAPGKERELVAAISSGGSTYYADSVKGRFTISRDNAKNTVYLQMNSLKPQDTAVYYCAADFYYAYYWGQGTQVTVSS
  polyreactivity (PSR sort gate): low polyreactivity

## QVQHVESGGGLVQAGGSLRLSCAASGGTFRPYARGWSIQAPGKERELVAAISYTGSTYYADSVKGRFTISRDNAKYTVYLQMNSLKPEDTAVYYCAKDFWYPPRFDYWGQGTQVTVSS
  polyreactivity (PSR sort gate): low polyreactivity

## QVQLVESGGGLVQAGGSLRLSCADSGFILDYNTMGWYRQAPGKERELVAAISSSGDTTYYADSVKGRFTISRDNAKNTVYLQMNSLKPEDTAVYYCAREYGDGYEYWGQGTQVTVSS
  polyreactivity (PSR sort gate): low polyreactivity

## QVQLEESGGGLVQAGGSLRLSCAASGFIFDYYAMGWYRQAPGKERELVAAISSSGGSTYADSVKGRFTISRDNAKNTVYLQMNSLKPEDTAVYYCAADWYKRPPYDYWGQGTQVTVSS
  polyreactivity (PSR sort gate): low polyreactivity

## QVQLVESGGGLVQAGGSLPLSCAASGSIFGINAMGWYRQAPGKERELVAAISSRGASTYYADSVKGRFTISRDNAKNTVYLQMNSLKPEDTAVYYCAADAFYWGQGTQVTVSS
  polyreactivity (PSR sort gate): low polyreactivity
